Source: US20250333461A1 (BEIJING QL BIOPHARMACEUTICAL, published 2025)

Biological target: human beta-Klotho (human, UniProt Q86Z14 1-1044)
Test: cell-based or functional assay

B1: Native FGF21 (ligand)
chain: HPIPDSSPLLQFGGQVRQRYLYTDDAQQTEAHLEIREDGTVGGAADQSPESLLQLKALKPGVIQILGVKTSRFLCQRPDGALYGSLHFDPEACSFRELLLEDGYNVYQSEAHGLPLHLPGNKSPHRDPAPRGPARFLPLPGLPPALPEPPGILAPQPPDVGSSDPLSMVGPSQGRSPSYAS
  FGF21 activity (EC50, nM); p-ERK levels, 1% HSA: 0.96 nM
